Source: the supplement of paper PMC9732359
± gives the uncertainty stated by the source.

Assay: protein stability index of a GFP-peptide fusion (yeast GPS) (PSI 1-4); higher = more stable; sorted into four equal gates, so the index is relative within each strain
Method in brief: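 Plasmids isolated from each sorting gate were PCR-amplified and Illumina-sequenced, and barcodes assigned the reads to strains. The gates, four of equal size, were set by GFP/Cherry fluorescence ratio on mid-log cultures in leucine-free medium. These cultures were yeast carrying a pooled library of tiled 17-residue yeast protein peptides fused downstream of GFP on a plasmid that also expresses Cherry. The protein stability index is the sum of every gate's read frequency times its gate number.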

Sequence: GLMKSYKIPKVMKDIYK [ESC2]
- protein stability index (doa10∆): 3.15 ± 0.27
- protein stability index (pdr5∆): 3.38 ± 0.12
- protein stability index (san1∆): 2.42 ± 0.26
- protein stability index (ubr1∆): 2.92 ± 0.11

Sequence: GLNSDAEEVRNFALTTL [ECM29]
- protein stability index (doa10∆): 2.84 ± 0.14
- protein stability index (pdr5∆): 3.13 ± 0.29
- protein stability index (san1∆): 1.38 ± 0.098
- protein stability index (ubr1∆): 1.62 ± 0.11

Sequence: GLNWLISLHENKLSGIL [ISW2]
- protein stability index (doa10∆): 2.05 ± 0.056
- protein stability index (pdr5∆): 2.06 ± 0.062
- protein stability index (san1∆): 2.11 ± 0.082
- protein stability index (ubr1∆): 2.31 ± 0.092

Sequence: GLSILFLTGQFASNKKI [YML103C/NUP188]
- protein stability index (doa10∆): 2.36 ± 0.068
- protein stability index (pdr5∆): 2.37 ± 0.062
- protein stability index (san1∆): 2.68 ± 0.079
- protein stability index (ubr1∆): 2.35 ± 0.052

Sequence: GLSMLAKLKELAEDVDD [RPC31]
- protein stability index (doa10∆): 2.92 ± 0.079
- protein stability index (pdr5∆): 3.31 ± 0.061
- protein stability index (san1∆): 2.87 ± 0.078
- protein stability index (ubr1∆): 2.95 ± 0.047

Sequence: GLSVTQKVFVRSRNGGA [DIS3]
- protein stability index (doa10∆): 1.46 ± 0.071
- protein stability index (pdr5∆): 1.32 ± 0.065
- protein stability index (san1∆): 1.4 ± 0.15
- protein stability index (ubr1∆): 1.62 ± 0.063

Sequence: GLVNPKTVQSMTQRAIQ [SWI3]
- protein stability index (doa10∆): 3.25 ± 0.14
- protein stability index (pdr5∆): 2.25 ± 0.14
- protein stability index (san1∆): 2.39 ± 0.14
- protein stability index (ubr1∆): 2.05 ± 0.092

Sequence: GMLAMASLHSKELTRIP [MED4]
- protein stability index (doa10∆): 2.18 ± 0.14
- protein stability index (pdr5∆): 2.37 ± 0.12
- protein stability index (san1∆): 2.27 ± 0.2
- protein stability index (ubr1∆): 1.88 ± 0.19

Sequence: GMNNASAGLFGSKPAGG [YGL172W/NUP49]
- protein stability index (doa10∆): 3.23 ± 0.086
- protein stability index (pdr5∆): 3.32 ± 0.086
- protein stability index (san1∆): 2.96 ± 0.09
- protein stability index (ubr1∆): 3.23 ± 0.053

Sequence: GMVSHKTARGKAALERL [RPL16A]
- protein stability index (san1∆): 3.17 ± 0.13

Sequence: GMYALRERRIHVTQEDF [RPT6]
- protein stability index (doa10∆): 1.81 ± 0.074
- protein stability index (pdr5∆): 1.94 ± 0.054
- protein stability index (san1∆): 1.59 ± 0.099
- protein stability index (ubr1∆): 2.49 ± 0.1

Sequence: GNGELYMDCLLYDLRAS [SNU114]
- protein stability index (doa10∆): 2.03 ± 0.058
- protein stability index (pdr5∆): 2.12 ± 0.1
- protein stability index (san1∆): 1.91 ± 0.13
- protein stability index (ubr1∆): 2.29 ± 0.077

Sequence: GNIFSNIGTPSFNMAQI [SNF5]
- protein stability index (doa10∆): 2.58 ± 0.099
- protein stability index (pdr5∆): 2.66 ± 0.093
- protein stability index (san1∆): 3.05 ± 0.069
- protein stability index (ubr1∆): 2.64 ± 0.054

Sequence: GNPTNISSPIVANSPNK [YDL088C/ASM4]
- protein stability index (doa10∆): 1.3 ± 0.13
- protein stability index (pdr5∆): 2.06 ± 0.14
- protein stability index (ubr1∆): 1.82 ± 0.1

Sequence: GNPVNDANLLGAEVLIK [COR1]
- protein stability index (doa10∆): 2.56 ± 0.086
- protein stability index (pdr5∆): 3.02 ± 0.093
- protein stability index (san1∆): 2.63 ± 0.075
- protein stability index (ubr1∆): 2.89 ± 0.035

Sequence: GNYVIIIGHNPDENKTR [RPL2A]
- protein stability index (doa10∆): 2.97 ± 0.088
- protein stability index (pdr5∆): 3.32 ± 0.093
- protein stability index (san1∆): 3.12 ± 0.074
- protein stability index (ubr1∆): 2.87 ± 0.082

Sequence: GPANNPNEFMQFKSKEV [PRP8]
- protein stability index (doa10∆): 3.1 ± 0.11
- protein stability index (pdr5∆): 3.31 ± 0.083
- protein stability index (san1∆): 3.19 ± 0.044
- protein stability index (ubr1∆): 3.43 ± 0.11

Sequence: GPIKTPVGACATSVESV [FAS2]
- protein stability index (doa10∆): 1.39 ± 0.073
- protein stability index (pdr5∆): 2.13 ± 0.12
- protein stability index (san1∆): 2.15 ± 0.11
- protein stability index (ubr1∆): 2.22 ± 0.077

Sequence: GPPYTTDEHLIFNSGKM [ISW2]
- protein stability index (doa10∆): 3.13 ± 0.059
- protein stability index (pdr5∆): 3.26 ± 0.058
- protein stability index (san1∆): 3.06 ± 0.049
- protein stability index (ubr1∆): 2.99 ± 0.048

Sequence: GPSSVHNAKNGTLDKNS [SNF2]
- protein stability index (doa10∆): 2.66 ± 0.22
- protein stability index (pdr5∆): 3.03 ± 0.22
- protein stability index (ubr1∆): 2.74 ± 0.17

Sequence: GQGAFGNMCRGGRMFAP [RPL4A]
- protein stability index (doa10∆): 3.61 ± 0.2
- protein stability index (pdr5∆): 3.06 ± 0.27
- protein stability index (san1∆): 3.23 ± 0.067
- protein stability index (ubr1∆): 3.4 ± 0.11

Sequence: GQLGEMAKCLDNPDQGI [YCS4]
- protein stability index (doa10∆): 3.13 ± 0.14
- protein stability index (pdr5∆): 3.49 ± 0.12
- protein stability index (san1∆): 3.39 ± 0.065
- protein stability index (ubr1∆): 3.29 ± 0.15

Sequence: GQLTGIYRYKYKVMHQI [PRP8]
- protein stability index (doa10∆): 2.9 ± 0.14
- protein stability index (pdr5∆): 2.2 ± 0.13
- protein stability index (san1∆): 2.91 ± 0.088
- protein stability index (ubr1∆): 2.42 ± 0.081

Sequence: GQMAPIGTGAFDVMIDE [RPO21]
- protein stability index (doa10∆): 2.29 ± 0.12
- protein stability index (pdr5∆): 2.3 ± 0.13
- protein stability index (san1∆): 2.37 ± 0.12
- protein stability index (ubr1∆): 2.54 ± 0.057

Sequence: GQNLKDLLVNFSAGAAA [RPP1A]
- protein stability index (doa10∆): 2.27 ± 0.13
- protein stability index (pdr5∆): 2.18 ± 0.2
- protein stability index (san1∆): 2.02 ± 0.21
- protein stability index (ubr1∆): 2.13 ± 0.15

Sequence: GQQSVEGKRIAFGFVDR [RPO21]
- protein stability index (doa10∆): 3.25 ± 0.2
- protein stability index (pdr5∆): 3.01 ± 0.2
- protein stability index (san1∆): 3.44 ± 0.11
- protein stability index (ubr1∆): 3.52 ± 0.14

Sequence: GQSINDSLKKLLPQWDD [ARP9]
- protein stability index (doa10∆): 2.88 ± 0.047
- protein stability index (pdr5∆): 2.86 ± 0.044
- protein stability index (san1∆): 2.74 ± 0.045
- protein stability index (ubr1∆): 2.88 ± 0.04

Sequence: GRGTLFVRGDSKIFRFQ [RPL24A]
- protein stability index (doa10∆): 1.58 ± 0.05
- protein stability index (pdr5∆): 1.74 ± 0.076
- protein stability index (san1∆): 1.95 ± 0.087
- protein stability index (ubr1∆): 2.21 ± 0.065

Sequence: GRKYTTLGKLSTSVGWK [RPL16B]
- protein stability index (doa10∆): 2.79 ± 0.1
- protein stability index (pdr5∆): 1.94 ± 0.1
- protein stability index (san1∆): 2.77 ± 0.11
- protein stability index (ubr1∆): 2.64 ± 0.067

Sequence: GRLDRKVEIPLPNEAGR [RPT4]
- protein stability index (doa10∆): 3.16 ± 0.13
- protein stability index (pdr5∆): 3.27 ± 0.1
- protein stability index (san1∆): 3.11 ± 0.065
- protein stability index (ubr1∆): 3.09 ± 0.1

Sequence: GRLRNKSHKQTIVTGGG [RPP1]
- protein stability index (doa10∆): 2.57 ± 0.093
- protein stability index (pdr5∆): 2.89 ± 0.081
- protein stability index (san1∆): 2.56 ± 0.073
- protein stability index (ubr1∆): 2.92 ± 0.074

Sequence: GRYLLTPPDDLHPYVPS [SRB8]
- protein stability index (doa10∆): 2.36 ± 0.057
- protein stability index (pdr5∆): 2.41 ± 0.056
- protein stability index (san1∆): 2.55 ± 0.061
- protein stability index (ubr1∆): 2.66 ± 0.039

Sequence: GSAADTQAIADIVQYHL [PRE3]
- protein stability index (pdr5∆): 3.26 ± 0.19
- protein stability index (san1∆): 2.88 ± 0.17
- protein stability index (ubr1∆): 2.99 ± 0.13

Sequence: GSFNEMKRNCGQIITLF [RMP1]
- protein stability index (doa10∆): 2.74 ± 0.064
- protein stability index (pdr5∆): 2.91 ± 0.06
- protein stability index (san1∆): 2.55 ± 0.062
- protein stability index (ubr1∆): 2.87 ± 0.052

Sequence: GSGVDSSKLQLTKKYSF [RRP42]
- protein stability index (doa10∆): 2.67 ± 0.12
- protein stability index (pdr5∆): 2.8 ± 0.062
- protein stability index (san1∆): 1.55 ± 0.12
- protein stability index (ubr1∆): 2.83 ± 0.071

Sequence: GSHLFSIHAHGSTDVGY [PUP1]
- protein stability index (doa10∆): 2.58 ± 0.078
- protein stability index (pdr5∆): 3.01 ± 0.15
- protein stability index (san1∆): 2.92 ± 0.077
- protein stability index (ubr1∆): 2.02 ± 0.081

Sequence: GSIFTHETTFMTAMRLM [YML031W/NDC1]
- protein stability index (doa10∆): 1.88 ± 0.072
- protein stability index (pdr5∆): 2.53 ± 0.083
- protein stability index (san1∆): 2.71 ± 0.065
- protein stability index (ubr1∆): 2.64 ± 0.081

Sequence: GSLKLIELLCGLGKSAV [NAS6]
- protein stability index (san1∆): 3.08 ± 0.098

Sequence: GSLSGNSSSMEEVMRIA [ESC2]
- protein stability index (doa10∆): 2.9 ± 0.074
- protein stability index (pdr5∆): 2.88 ± 0.11
- protein stability index (san1∆): 2.45 ± 0.12
- protein stability index (ubr1∆): 2.73 ± 0.083

Sequence: GSLWVEFCDEPSVGVKT [RPB5]
- protein stability index (doa10∆): 2.84 ± 0.054
- protein stability index (pdr5∆): 2.86 ± 0.076
- protein stability index (san1∆): 3 ± 0.093
- protein stability index (ubr1∆): 2.92 ± 0.053

Sequence: GSPSLTSPQYIPSPLSS [NUT1]
- protein stability index (doa10∆): 2.56 ± 0.042
- protein stability index (pdr5∆): 2.52 ± 0.033
- protein stability index (san1∆): 2.65 ± 0.037
- protein stability index (ubr1∆): 2.52 ± 0.028

Sequence: GSSASSRKAHGLNAKQL [POP1]
- protein stability index (doa10∆): 3.21 ± 0.069
- protein stability index (pdr5∆): 3.27 ± 0.084
- protein stability index (san1∆): 3.13 ± 0.077
- protein stability index (ubr1∆): 3.04 ± 0.066

Sequence: GSSRIIASDGSECIVSI [RRP42]
- protein stability index (doa10∆): 3.33 ± 0.14
- protein stability index (pdr5∆): 3.27 ± 0.075
- protein stability index (san1∆): 3.11 ± 0.061
- protein stability index (ubr1∆): 3.12 ± 0.15

Sequence: GSVLLTLLNFVSNNVLR [ECM29]
- protein stability index (doa10∆): 1.43 ± 0.054
- protein stability index (pdr5∆): 1.31 ± 0.059
- protein stability index (san1∆): 1.67 ± 0.1
- protein stability index (ubr1∆): 2.03 ± 0.073

Sequence: GSYIDKKCPFTGLVSIR [RPS11A]
- protein stability index (doa10∆): 2.12 ± 0.07
- protein stability index (pdr5∆): 2.06 ± 0.059
- protein stability index (san1∆): 2.27 ± 0.081
- protein stability index (ubr1∆): 2.2 ± 0.049

Sequence: GTGRSGQGAFGNMCRGG [RPL4A]
- protein stability index (doa10∆): 3.49 ± 0.14
- protein stability index (pdr5∆): 3.37 ± 0.078
- protein stability index (san1∆): 3.33 ± 0.11
- protein stability index (ubr1∆): 3.24 ± 0.063

Sequence: GTISIQLKNGLLEKYNT [MTR3]
- protein stability index (doa10∆): 2.28 ± 0.059
- protein stability index (pdr5∆): 2.5 ± 0.073
- protein stability index (san1∆): 2.42 ± 0.082
- protein stability index (ubr1∆): 2.43 ± 0.037

Sequence: GTQMTLKTFHFAGVASM [RPO31]
- protein stability index (doa10∆): 1.63 ± 0.11
- protein stability index (pdr5∆): 1.85 ± 0.088
- protein stability index (san1∆): 1.68 ± 0.13
- protein stability index (ubr1∆): 2.1 ± 0.12

Sequence: GTSKYLINGHRAPQQSV [SMC2]
- protein stability index (doa10∆): 2.13 ± 0.054
- protein stability index (pdr5∆): 2.36 ± 0.047
- protein stability index (san1∆): 2.27 ± 0.076
- protein stability index (ubr1∆): 2.22 ± 0.052

Sequence: GTSVISMKYDNGVIIAA [PRE4]
- protein stability index (doa10∆): 2.05 ± 0.19

Sequence: GVEEEEELKDSEINEIL [SNF2]
- protein stability index (doa10∆): 3.14 ± 0.16
- protein stability index (pdr5∆): 3.33 ± 0.11
- protein stability index (san1∆): 2.31 ± 0.12
- protein stability index (ubr1∆): 2.72 ± 0.075

Sequence: GVFDPASYSKYLIDHIK [RPL22B]
- protein stability index (doa10∆): 3.12 ± 0.051
- protein stability index (pdr5∆): 3.1 ± 0.069
- protein stability index (san1∆): 2.92 ± 0.06
- protein stability index (ubr1∆): 2.9 ± 0.043
